These are literature values, as cited in PMC5331060.

Where two headings read alike, the source gives them in different places.

Data set [1] concerns the target beta clamp (Escherichia coli) (UniProt P0A988).
Data set [2] has the same target. This is another data set of the same source.

Sequence of UniProt P0A988 (P0A988 whole entry): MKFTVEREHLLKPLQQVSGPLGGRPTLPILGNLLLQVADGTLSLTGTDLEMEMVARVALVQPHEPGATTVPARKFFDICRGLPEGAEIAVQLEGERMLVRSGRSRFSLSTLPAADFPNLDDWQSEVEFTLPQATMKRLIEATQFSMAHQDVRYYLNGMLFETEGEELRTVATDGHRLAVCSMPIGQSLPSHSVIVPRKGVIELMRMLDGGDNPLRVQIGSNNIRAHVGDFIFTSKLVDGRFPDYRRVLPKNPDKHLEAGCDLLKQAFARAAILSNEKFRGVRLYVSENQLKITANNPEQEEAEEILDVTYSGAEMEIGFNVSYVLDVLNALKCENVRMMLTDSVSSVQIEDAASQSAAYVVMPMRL

As usually defined, the Kd is the equilibrium constant for the complex coming apart. On to DinB (Pol IV) (from UniProt Q47155), for which the Kd in data set [1] is 460 nM.
As to Pol III alpha (from UniProt P10443), the Kd in data set [2] is 108 nM.
